Data as given in article PMC2734569, “Functional mapping of the fission yeast DNA polymerase δ B-subunit Cdc1 by site-directed and random pentapeptide insertion mutagenesis” (BMC Molecular Biology, 2009).

Assays:
Assay in all cases: two-hybrid; LexA-Cdc1 bait (pBTM116 or pBTM116BN) with Gal4-Pol3 prey and co-expressed c-myc-tagged Cdc27 (pAA-Cdc27) in S. cerevisiae CTY10-5d; ONPG liquid culture beta-galactosidase assay, mean of triplicates, as percent of wild-type Cdc1
Details in all cases: partners not purified
Cdc1-J22 = biological target: T1, Cdc1-J22 (Schizosaccharomyces pombe, UniProt P87324 1-462, Arg-GlyValProLeuArg-Gly)
T1 construct: Cdc1, S. pombe, with a pentapeptide inserted after residue 212; source: yeast two-hybrid fusion, in S. cerevisiae CTY10-5d
T1 sequence (looked up): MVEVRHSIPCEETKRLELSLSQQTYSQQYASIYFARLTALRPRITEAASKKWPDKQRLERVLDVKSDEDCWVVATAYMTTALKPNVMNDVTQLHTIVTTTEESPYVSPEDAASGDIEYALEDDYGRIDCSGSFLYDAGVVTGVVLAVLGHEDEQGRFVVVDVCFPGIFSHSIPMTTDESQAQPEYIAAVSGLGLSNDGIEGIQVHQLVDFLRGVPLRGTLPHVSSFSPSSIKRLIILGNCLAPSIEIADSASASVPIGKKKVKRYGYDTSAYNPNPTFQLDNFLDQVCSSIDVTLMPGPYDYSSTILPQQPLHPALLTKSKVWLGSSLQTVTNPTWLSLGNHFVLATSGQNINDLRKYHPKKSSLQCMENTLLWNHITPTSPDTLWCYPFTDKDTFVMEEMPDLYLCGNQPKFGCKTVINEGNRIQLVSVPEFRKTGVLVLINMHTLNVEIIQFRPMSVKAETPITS

Cdc1-A1 = biological target: T2, Cdc1-A1 (Schizosaccharomyces pombe, UniProt P87324 1-462, Pro292Ala)
T2 construct: Cdc1, S. pombe, point mutant; source: yeast two-hybrid fusion, in S. cerevisiae CTY10-5d
T2 sequence (looked up): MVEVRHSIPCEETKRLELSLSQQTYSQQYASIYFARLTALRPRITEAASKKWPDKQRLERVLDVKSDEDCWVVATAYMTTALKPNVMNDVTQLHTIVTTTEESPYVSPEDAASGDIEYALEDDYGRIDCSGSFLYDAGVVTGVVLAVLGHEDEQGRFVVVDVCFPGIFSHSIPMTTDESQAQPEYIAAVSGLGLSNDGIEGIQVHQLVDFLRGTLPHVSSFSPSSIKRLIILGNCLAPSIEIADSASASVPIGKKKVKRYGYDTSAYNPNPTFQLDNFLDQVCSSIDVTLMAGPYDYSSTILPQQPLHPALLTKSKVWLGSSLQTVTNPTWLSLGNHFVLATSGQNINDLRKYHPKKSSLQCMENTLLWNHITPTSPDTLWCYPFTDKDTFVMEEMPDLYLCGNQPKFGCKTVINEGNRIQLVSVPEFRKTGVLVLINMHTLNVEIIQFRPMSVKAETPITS

Cdc1-J12 = biological target: T3, Cdc1-J12 (Schizosaccharomyces pombe, UniProt P87324 1-462, Ser-GlyValProHisSer-Ile)
T3 construct: Cdc1, S. pombe, with a pentapeptide inserted after residue 7; source: yeast two-hybrid fusion, in S. cerevisiae CTY10-5d
T3 sequence (looked up): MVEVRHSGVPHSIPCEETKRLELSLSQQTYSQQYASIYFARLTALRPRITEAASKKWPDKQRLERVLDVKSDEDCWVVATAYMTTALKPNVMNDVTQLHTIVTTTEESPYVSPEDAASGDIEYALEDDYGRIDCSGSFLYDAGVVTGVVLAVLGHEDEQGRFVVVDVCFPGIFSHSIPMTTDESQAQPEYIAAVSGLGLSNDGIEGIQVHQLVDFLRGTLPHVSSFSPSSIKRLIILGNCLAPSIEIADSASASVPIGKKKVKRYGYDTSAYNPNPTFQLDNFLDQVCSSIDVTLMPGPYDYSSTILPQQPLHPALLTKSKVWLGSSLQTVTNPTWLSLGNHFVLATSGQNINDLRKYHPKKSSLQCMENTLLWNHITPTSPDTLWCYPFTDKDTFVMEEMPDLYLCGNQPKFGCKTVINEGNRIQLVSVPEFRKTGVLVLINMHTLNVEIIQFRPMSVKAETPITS

Cdc1-J3 = biological target: T4, Cdc1-J3 (Schizosaccharomyces pombe, UniProt P87324 1-462, Leu-GlyValProLeuLeu-Asp)
T4 construct: Cdc1, S. pombe, with a pentapeptide inserted after residue 62; also called E3; E8; source: yeast two-hybrid fusion, in S. cerevisiae CTY10-5d
T4 sequence (looked up): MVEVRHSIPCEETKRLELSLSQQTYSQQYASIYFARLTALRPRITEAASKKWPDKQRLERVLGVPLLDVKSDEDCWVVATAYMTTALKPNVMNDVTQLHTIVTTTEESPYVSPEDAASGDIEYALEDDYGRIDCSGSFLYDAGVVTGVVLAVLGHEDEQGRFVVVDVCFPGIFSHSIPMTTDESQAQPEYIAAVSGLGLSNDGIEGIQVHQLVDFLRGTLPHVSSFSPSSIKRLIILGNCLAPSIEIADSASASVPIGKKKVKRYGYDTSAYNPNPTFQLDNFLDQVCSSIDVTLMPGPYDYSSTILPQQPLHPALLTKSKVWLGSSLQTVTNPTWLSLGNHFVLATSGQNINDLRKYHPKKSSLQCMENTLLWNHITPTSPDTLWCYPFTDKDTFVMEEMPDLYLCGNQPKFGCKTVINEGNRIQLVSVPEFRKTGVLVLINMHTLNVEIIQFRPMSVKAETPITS

two-hybrid beta-galactosidase activity, % of wild-type Cdc1 (Cdc1-J22): 25%
two-hybrid beta-galactosidase activity, % of wild-type Cdc1 (Cdc1-A1): 39%
two-hybrid beta-galactosidase activity, % of wild-type Cdc1 (Cdc1-J12): < 1%
two-hybrid beta-galactosidase activity, % of wild-type Cdc1 (Cdc1-J3): 54%
B1: Pol3 (fission yeast DNA polymerase delta catalytic subunit) (natural protein, Schizosaccharomyces pombe, UniProt P30316 1-1086, looked up)
chain: MTDRSSNEGVVLNKENYPFPRRNGSIHGEITDVKRRRLSERNGYGDKKGSSSKEKTSSFEDELAEYASQLDQDEIKSSKDQQWQRPALPAINPEKDDIYFQQIDSEEFTEGSVPSIRLFGVTDNGNSILVHVVGFLPYFYVKAPVGFRPEMLERFTQDLDATCNGGVIDHCIIEMKENLYGFQGNEKSPFIKIFTTNPRILSRARNVFERGEFNFEELFPVGVGVTTFESNTQYLLRFMIDCDVVGMNWIHLPASKYQFRYQNRVSNCQIEAWINYKDLISLPAEGQWSKMAPLRIMSFDIECAGRKGVFPDPSIDPVIQIASIVTQYGDSTPFVRNVFCVDTCSQIVGTQVYEFQNQAEMLSSWSKFVRDVDPDVLIGYNICNFDIPYLLDRAKSLRIHNFPLLGRIHNFFSVAKETTFSSKAYGTRESKTTSIPGRLQLDMLQVMQRDFKLRSYSLNAVCSQFLGEQKEDVHYSIITDLQNGTADSRRRLAIYCLKDAYLPQRLMDKLMCFVNYTEMARVTGVPFNFLLARGQQIKVISQLFRKALQHDLVVPNIRVNGTDEQYEGATVIEPIKGYYDTPIATLDFSSLYPSIMQAHNLCYTTLLDSNTAELLKLKQDVDYSVTPNGDYFVKPHVRKGLLPIILADLLNARKKAKADLKKETDPFKKAVLDGRQLALKVSANSVYGFTGATNGRLPCLAISSSVTSYGRQMIEKTKDVVEKRYRIENGYSHDAVVIYGDTDSVMVKFGVKTLPEAMKLGEEAANYVSDQFPNPIKLEFEKVYFPYLLISKKRYAGLFWTRTDTYDKMDSKGIETVRRDNCPLVSYVIDTALRKMLIDQDVEGAQLFTKKVISDLLQNKIDMSQLVITKALSKTDYAAKMAHVELAERMRKRDAGSAPAIGDRVAYVIIKGAQGDQFYMRSEDPIYVLENNIPIDAKYYLENQLSKPLLRIFEPILGEKASSLLHGDHTRTISMAAPSVGGIMKFAVKVETCLGCKAPIKKGKTALCENCLNRSAELYQRQVAQVNDLEVRFARLWTQCQRCQGSMHQDVICTSRDCPIFYMRIAEHKKLQQSVDLLKRFDEMSW
notes: DNA polymerase delta catalytic subunit Pol3, S. pombe; prey plasmid named pACT-Pol3 in the results and pGAD2F-Pol3 in the methods; also called Gal4-Pol3; pACT-Pol3; source: yeast two-hybrid fusion, in S. cerevisiae CTY10-5d
